# Measurements as given in publication PMC3174058 (Biochemical Journal, 2011).
# Several values for one entry are separate records, joined by “and”; a condition that tells them apart may be missing. Identical values can stand only once.
# B1: SOUL: human SOUL protein, recombinant, expressed in E. coli, histidine tag removed by thrombin (protein)
# chain: MAEPLQPDPGAAEDAAAQAVETPGWKAPEDAGPQPGSYEIRHYGPAKWVSTSVESMDWDSAIQTGFTKLNSYIQGKNEKEMKIKMTAPVTSYVEPGSGPFSESTITISLYIPSEQQFDPPRPLESDVFIEDRAEMTVFVRSFDGFSSAQKNQEQLLTLASILREDGKVFDEKVYYTAGYNSPVKLLNRNNEVWLIQKNEPTKENE
# modifications: left off: His tag, C-terminal, cleaved
# B2: SOUL BH3 peptide (26-amino-acid-long peptide spanning residues 147–172 of human SOUL) (peptide)
# peptide: SAQKNQEQLLTLASILREDGKVFDEK
# Assays:
# Recombinant mouse SOUL = conditions: printed as range in words; ref [19] Sato et al., 2004; cited from earlier work
# 15N-labelled SOUL = assay: 15N-1H HSQC NMR titration of 15N-labelled SOUL with haemin; type: binding, human; conditions: 0.5, 1, 2, 3 and 4 equivalents haemin, Tris/HCl buffer, 25 °C; more than 1 day of observation
# [1] = UV–visible spectrum of haemin alone; type: physicochemical; conditions: 10 μM haemin; 20 mM Tris/HCl (pH 7.5), 0.15 M NaCl; 30 min, 25 °C
# caspase 8 = caspase 8 cleavage experiment; type: biochemical; conditions: human BID as control; results not shown
# [2] = test system: mitochondrial permeability transition / cell death; conditions: cited from earlier work
# [3] = biological target: human Bcl-xL lacking only the C-terminal transmembrane domain (after amino acid 209) (human, UniProt Q07817-1 1-209); assay: NMR titration
# Sequence of human Bcl-xL lacking only the C-terminal transmembrane domain (after amino acid 209) (Q07817 1-209): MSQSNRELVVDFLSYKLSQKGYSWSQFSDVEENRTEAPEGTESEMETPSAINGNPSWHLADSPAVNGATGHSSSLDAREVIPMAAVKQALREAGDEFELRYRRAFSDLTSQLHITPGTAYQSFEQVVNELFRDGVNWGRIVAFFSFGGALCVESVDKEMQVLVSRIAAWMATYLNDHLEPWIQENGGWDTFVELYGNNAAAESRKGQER
molecule,measurement,setting,value
C=CC1=C(C)c2cc3[n-]c(cc4[n-]c(cc5nc(cc1n2)C(C)=C5C=C)c(C)c4CCC(=O)O)c(CCC(=O)O)c3C.[Fe+2] [haem],dissociation constant for haem binding,Recombinant mouse SOUL,nanomolar range
C=CC1=C(C)c2cc3[n-]c(cc4nc(cc5[n-]c(cc1n2)c(C)c5C=C)C(C)=C4CCC(=O)O)c(CCC(=O)O)c3C.[Cl-].[Fe+3] [haemin],change of SOUL HSQC spectrum with haemin,15N-labelled SOUL,the spectrum remained unaltered
same,"haemin absorption peak position, haemin alone",[1],390 nM
B1,cleavage by caspase 8,caspase 8,is not a substrate of this enzyme
same,effect of deletion of putative BH3 domain on apoptotic effects,"[2]; human SOUL, BH3 domain deleted, ref [21] Szigeti et al., 2010",abolished the apoptotic effects of SOUL
same,induction of MPT,"[2]; leads to mitochondrial swelling and cell death, ref [20] Szigeti et al., 2006",can induce the MPT
B2,Kd,[3],47.8 µM and 41.3 µM
